The record followed here is patent publication US20230040928A1 (INSERM INSTITUT NATIONAL DE LA SANTE ET DE LA RECHERCHE …, published 2023).

One assay addresses T1, EGFR receptor (UniProt P00533 25-645, limits assumed).
T1 construct: also called Her1; ErbB1
Briefly: ELISA. (In an ELISA, binding on a coated surface is turned into a signal by an enzyme label.)

A further assay concerns the target T2, HER2 receptor (UniProt P04626 23-652, limits assumed).
T2 construct: also called Neu; ErbB2
Briefly: ELISA.

For the next assay, the target named is T3, HER3 receptor (UniProt P21860 20-643, limits assumed).
T3 construct: also called ErbB3
T3 sequence (P21860 20-643 limits assumed): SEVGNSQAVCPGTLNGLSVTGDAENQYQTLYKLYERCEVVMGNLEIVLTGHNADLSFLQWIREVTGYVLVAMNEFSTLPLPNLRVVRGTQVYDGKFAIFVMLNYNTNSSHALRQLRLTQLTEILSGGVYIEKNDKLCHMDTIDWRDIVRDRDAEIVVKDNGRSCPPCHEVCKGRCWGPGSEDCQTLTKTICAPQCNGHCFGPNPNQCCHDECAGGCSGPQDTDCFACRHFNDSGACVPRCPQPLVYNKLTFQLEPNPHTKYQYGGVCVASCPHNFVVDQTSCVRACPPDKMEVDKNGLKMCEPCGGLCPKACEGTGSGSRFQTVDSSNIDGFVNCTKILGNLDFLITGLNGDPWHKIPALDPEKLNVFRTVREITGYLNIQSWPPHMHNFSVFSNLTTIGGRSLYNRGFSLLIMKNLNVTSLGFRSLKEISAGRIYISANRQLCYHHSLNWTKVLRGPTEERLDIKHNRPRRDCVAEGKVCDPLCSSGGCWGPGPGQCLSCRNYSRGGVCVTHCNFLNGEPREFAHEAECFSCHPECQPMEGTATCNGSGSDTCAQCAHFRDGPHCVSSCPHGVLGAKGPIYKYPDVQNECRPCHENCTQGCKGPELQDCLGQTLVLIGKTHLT
Kind of assay: ELISA.

The target of assay [1] is T4, human HER4-Fc (human, UniProt Q15303 26-651).
T4 construct: Bought protein; also called HER4-Fc antigen; not shown: Fc part of the bought fusion protein, not described
T4 sequence: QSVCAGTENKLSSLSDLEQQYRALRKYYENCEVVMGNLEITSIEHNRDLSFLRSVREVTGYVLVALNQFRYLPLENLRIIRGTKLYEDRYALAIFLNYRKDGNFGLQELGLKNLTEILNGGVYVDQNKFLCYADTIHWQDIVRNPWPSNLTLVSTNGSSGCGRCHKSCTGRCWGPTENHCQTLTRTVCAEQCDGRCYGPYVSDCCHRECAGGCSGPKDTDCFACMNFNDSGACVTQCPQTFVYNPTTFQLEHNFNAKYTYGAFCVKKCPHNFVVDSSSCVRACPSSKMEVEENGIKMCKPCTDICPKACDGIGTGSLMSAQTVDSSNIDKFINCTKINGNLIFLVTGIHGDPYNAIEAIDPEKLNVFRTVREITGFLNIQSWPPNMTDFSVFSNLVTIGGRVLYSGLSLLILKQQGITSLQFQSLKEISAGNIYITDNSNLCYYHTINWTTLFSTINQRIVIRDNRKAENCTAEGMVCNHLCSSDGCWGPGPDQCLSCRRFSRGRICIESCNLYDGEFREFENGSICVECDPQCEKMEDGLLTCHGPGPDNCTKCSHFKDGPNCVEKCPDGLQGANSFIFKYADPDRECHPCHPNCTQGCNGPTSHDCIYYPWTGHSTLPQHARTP
Kind of assay: ELISA, human HER4-Fc coated, concentration giving 50% absorbance. Here is the method: (§1) Ninety six-well enzyme immunoassay plates (Nunc Maxisorp) were coated overnight at 4° C. with HER4-Fc antigen at a concentration of 250 ng/ml in PBS pH 7.4. After four washes in PBS, containing 0.1% Tween 20 (PBS-T), plates were saturated with a 2% solution of bovine serum albumin (BSA) in PBS-T buffer for 2 h at 37° C. Two-fold or ten-fold serial dilutions of purified HER4-specific mAbs were added after four washes in PBS-T and plates were incubated at 37° C. for 2 h. Following four washes in PBS-T, 100 μl of a peroxidase-conjugated goat anti-human F(ab′)2 antibody (Jackson Immunoresearch) were added to each well. The conjugate was used at a 1:5000 dilution in PBS-T-2% BSA. The plates were incubated at 37° C. for 1 h and then washed three times in PBS-T and once in PBS. Finally a Tetramethylbenzidine solution (Sigma) was added for 30 min at ambient temperature in the dark. The reaction was stopped by adding 50 μl/well 1M […] and the absorbance was measured at 450 nm. […] HER4-specific antibodies D5 and C6, giving 50%-absorbance at concentration of 20 ng/ml and 100 ng/ml respectively, on human HER4-Fc, are more efficient for binding than F4 and H2, which gave a 50%-absorbance at concentration around 1-5 μg/ml (FIG. 1).

The target of assay [2] is T4, human HER4-Fc. Kind of assay: ELISA, HER4-Fc coated at 250 ng/ml, IgG in solution. Here is the method:
as §1

Changes are numbered by the printed parent chain.

B1: C6 mAb (antibody, V domains shown)
VH: EVQLVESGGSLVKPGGSLRLSCAASGFTFSNYYMNWVRQAPGKGLEWISSISGSSRYIDYADFVKGRFTISRDNATNSLYLQMNSLRAEDTAVYYCVRSSSDYFGGGMDVWGRGTLVTVSS
VL: QSVLTQPASVSGSPGQSITISCAGTSSDVGGSYYVSWYQQHPGKAPKLMIYYDSYRPSGVSNRFSGSKSGNTASLTISGLQAEDEADYYCSSSTYNSTRVFGGGTKLAVLG
notes: also called antibody C6; Ab C6
A word on the EC50: it is the concentration giving half of the maximal effect. Low readings indicate an effect from little substance, high ones a need for much substance. In the case of B1, the binding result with EGFR receptor, in the assay with HER2 receptor and with HER3 receptor was “no binding” in each case. Besides, in the assay with human HER4-Fc [1], the concentration giving a half-maximal response (EC50) worked out at 0.1 µg/mL.

B2: D5 mAb (antibody, V domains shown)
VH: B1 VH with S52D
VL: B1 VL with Y33S, S93N, N96Y
notes: also called antibody D5; anti-HER4 antibody D5
In the case of B2, the binding result with EGFR receptor, with HER2 receptor and with HER3 receptor was “no binding” in each case. In addition, the EC50 with human HER4-Fc [1] was 0.02 µg/mL.

B3: F4 mAb (antibody, V domains shown)
VH: B1 VH with Y32N, Y33D, D59N, S101D
VL: B1 VL with S32Y, Y33S, Y34G, Y52N, S93Y, Y95N
notes: also called antibody F4
For B3, the binding result with EGFR receptor was “no binding”; with HER2 receptor, “no binding”; in the assay with HER3 receptor, “no binding”; in the assay with human HER4-Fc [2] it was “binds”.

B4: H2 mAb (antibody, V domains shown)
VH: B1 VH with Y32N, Y33D, S50D, S52N, D59Y, S101D
VL: B1 VL with S32Y, Y34S, Y52N, N96Y
notes: also called antibody H2
Consider B4, for which the binding result is given as “no binding” in the assay with EGFR receptor, “no binding” with HER2 receptor, “no binding” with HER3 receptor and “binds” in the assay with human HER4-Fc [2].
